Source: patent US20250215403A1, “Compositions and Methods for Cardiac Tissue Regeneration” (Temple University - Of The Commonwealth System Of Higher …, priority 2022, published 2025)

Legend:
[1] = tested on: serine synthesis pathway (SSP); assay: Serine and glycine levels in mouse heart post-MI; format: in vivo; details: two days post-MI; HPLC study; vs Luc modRNA
[2] = HPLC measurements of oxidative stress (ROS, GSH/GSSG, NADPH, NADH) in heart post-MI; format: in vivo, mouse
Experimental: ROS production in heart tissue was measured using HPLC for dihydroethidium (DHE) oxidation products (Magadum A., et al., Circulation. 2020, 141 (15): 1249-1265). Immediately after harvesting hearts, a 20 mg segment of heart tissue was cut into small pieces and incubated with DHE (100 μM) in PBS containing DTPA (100 μM) at 37° C. for 30 min. The sample was washed with PBS/DTPA, extracted with acetonitrile (500 μl) and briefly sonicated (3× 30 sec, 8W). After centrifugation (13,000×g, 10 min at 4° C.), the supernatant was collected and dried under vacuum, and pellets stored at −20° C. in the dark until analysis. Samples were resuspended in 120 μl PBS-DTPA and injected into the HPLC system. The superoxide-specific DHE oxidation product 2-hydroxyethidine (EOH) was quantified by comparison of the peak signal between samples and standard solutions under identical chromatographic conditions, and expressed as EOH/mg tissue.
The level of glutathione (GSH) in heart tissue was measured by an HPLC method with electrochemical detection, as previously described (Magadum A., et al., Circulation. 2020, 141 (15): 1249-1265). Heart samples were homogenized in a 100 mM acetate buffer (pH 5.4, containing 10 μM DTPA). A small aliquot was used to quantify total protein. The remaining sample was deproteinized with 10% TCA, centrifuged at 10,000×g for 5 min at 4° C., the supernatant filtered (0.45 μm) and stored at −80° C. Samples were injected onto a C18 column (Phenomenex C18, 3 μm, 150×4.6 mm) and eluted at 0.5 ml/min using an isocratic mobile phase solution (25 mM NaH2PO4, 1 mM 1-octane sulfonic acid, 6% acetonitrile, pH 2.6, H2O with phosphoric acid). GSH levels were quantified by comparison to standards subjected to the same HPLC conditions. Glutathione disulfide (GSSG) levels were indirectly determined by its enzymatic reduction with glutathione reductase (0.6 U/ml plus 0.2 mg/ml NADPH) for 30 min. The reaction was stopped by adding 5% TCA on ice. The GSH levels were normalized by the amount of protein. GSSG quantification was achieved by the difference between total reduced GSSG to total GSH in each sample.

[3] = Mouse MI model: heart histology 28 days post-MI (Masson trichrome scar size, HW/BW, WGA CM size, CD31 capillaries); format: in vivo
Experimental: All surgical and experimental procedures with mice were performed in accordance with protocols approved by Institutional Animal Care and Use Committees at Temple University Animal Care and Use Committee (IACUC). C57BL6 or CM-specific MADM mice (8-12-weeks-old) were anesthetized with isoflurane. MI was induced by permanent ligation of the LAD, as previously described (Garikipati, V. N. S., et al., 2019, Nature Communications, 10:4317). Briefly, the left thoracic region was shaved and sterilized. After intubation, the heart was exposed through a left thoracotomy. A suture was placed to ligate the LAD. The thoracotomy and skin were sutured closed in layers. Excess air was removed from the thoracic cavity, and the mouse was removed from ventilation when normal breathing was established. In order to determine the effect of modRNA on cardiovascular outcome after MI, modRNAs (100 μg/heart) were injected into the infarct zone immediately after LAD ligation (Magadum A., et al., Circulation. 2020, 141 (15): 1249-1265). For examination of heart histology, hearts were collected at the end of each study, quickly washed in PBS, weighed, and fixed in 4% PFA for cryo-sectioning and immunostainings. In all experiments, the surgeon was blinded to the treatment group. For assessment of heart histology, hearts were collected at the end of each study. The hearts were excised, briefly washed in PBS, perfused with perfusion buffer, weighed and fixed in 4% PFA at 4° C. overnight. The heart blocks were transverse sectioned at 6-8 μm using cryostat. The heart sections were further processed for histological evaluation using immunostaining (see below) or histological scar staining using Masson's trichrome staining kit (Sigma) according to standard procedures. Measuring the ratio of heart weight to body weight was done using a scale. This ratio was calculated as the heart tissue weight relative to the mouse total body weight in grams (g).
Mice hearts were harvested, weighed, and fixed in 4% PFA/PBS overnight on shaker and then washed with PBS for 1 hour and incubated in 30% sucrose/PBS at 4° C. for 12-18 hours. Hearts were then fixed in OCT and frozen at −80° C. (Magadum A., et al., Circulation. 2020, 141 (15): 1249-1265). Transverse heart sections (6-8 μm) were made using a cryostat. […] For immunostaining with wheat germ agglutinin (WGA) for CM size quantification, images were captured at 40× magnification, and ImageJ was used to determine the area of each cell. Quantitative analyses involved counting of multiple fields from 5-8 mouse hearts per group, and 3-4 sections/heart (˜50 cells per field assessed, for a total ˜250 cells per sample). […] BrdU positive CMs were counted in multiple fields from three independent samples per group and 3 sections/heart. […]

B1: PSAT1 modRNA: modified mRNA with N1-methylpseudouridine, transcribed in vitro, encoding phosphoserine aminotransferase 1 (ORF SEQ ID NO: 1, RNA SEQ ID NO: 2) (nucleic acid)
chain: AUGGAAGCCACCAAGCAAGUGGUUAACUUUGGGCCCGGGCCUGCCAAGCUGCCACACUCGGUAUUGUUGGAGAUCCAGAAGCAGCUACUAGACUACAGAGGACUCGGCAUCAGUGUGCUCGAAAUGAGUCACAGGUCAUCAGAUUUUGCCAAGAUUAUUGGCAAUACAGAGAAUCUUGUGAGGGAAUUGCUAGCUGUUCCCAACAACUACAAGGUGAUCUUUGUACAAGGAGGUGGGUCUGGCCAGUUCAGUGCUGUCCCCUUAAAUCUGAUUGGCCUGAAAGCUGGAAGGAGUGCUGACUACGUGGUGACCGGAGCUUGGUCAGCUAAGGCUGCGGAAGAAGCCAAGAAGUUUGGAACGGUGAACAUUGUCCACCCUAAACUUGGAAGUUACACAAAAAUUCCAGACCCAAGCACCUGGAACCUCAACCCGGACGCCUCCUAUGUAUACUUCUGUGCAAACGAGACUGUGCACGGGGUGGAGUUUGACUUCGUACCUGACGUCAAGGGAGCGGUGCUGGUCUGUGACAUGUCCUCAAACUUCUUAUCCAGGCCGGUGGAUGUUUCCAAGUUUGGUGUGAUUUUCGCUGGUGCUCAGAAGAAUGUUGGCUCUGCCGGGGUGACGGUGGUGAUUGUCCGGGAUGACCUGCUGGGGUUCUCGCUCAGAGAGUGCCCAUCAGUCCUUGACUACAAAGUGCAGGCUGGGAACAACUCUUUGUAUAACACACCUCCGUGCUUCAGCAUCUACGUCAUGGGCAUGGUCCUGGAAUGGAUCAAGAACAACGGCGGGGCCGCAGCCAUGGAGAAGCUCAGCUCCAUCAAAUCCCAAAUGAUUUAUGAGAUCAUUGAUAAUUCUCAAGGAUUUUAUGUAUGCCCAGUGGAGCGCCAGAAUAGAAGCAGGAUGAACAUCCCAUUUCGCAUUGGCAACGCCAAAGGAGACGAAGCUUUGGAAAAGCGGUUUCUUGACAAGGCGGUAGAACUCAACAUGAUCUCCUUGAAGGGGCACAGGUCAGUGGGAGGCAUUCGUGCCUCUCUGUAUAACGCUGUCACAACCGAAGACGUUGAGAAGCUGGCGGCCUUCAUGAAGAAUUUCUUGGAGAUGCAUCAGCUGUGA
modifications: N1-methylpseudouridine
For B1, the “glycine levels in heart” value [1] was “increase”, the “serine levels in heart” value [1] was “increase” and the GSH/GSSG ratio ([2]; heart post-MI) was “significantly increased”. For the same molecule, the “levels of superoxide and other ROS” value ([2]; heart two days post-MI, DHE probe) was “reduced”, the NADH level ([2]; two days post-MI) was “increased” and the NADPH level ([2]; two days post-MI) was “increased”. The “CM size (WGA)” value [3] was “significantly decreased”, the “capillary density (CD31)” value [3] was “improved” and the “heart weight to body weight (HW/BW) ratio” value [3] was “significantly increased”. The “scar size (Masson's trichrome staining)” value ([3]; compared to Luc modRNA) was “decreased”.
